The text below walks through data of PMC11087588, “Genetic and functional diversity of β-N-acetylgalactosamine-targeting glycosidases expanded by deep-sea metagenome analysis” (Nature Communications, 2024).

Broadly, the Km is the concentration of substrate that gives half-maximal velocity. In general, kcat refers to the maximal rate divided by the concentration of active sites.

Assay in all cases: purified protein
Substrate in data set [1]: CC(=O)N[C@H]1[C@H](Oc2ccc([N+](=O)[O-])cc2)O[C@H](CO)[C@H](O)[C@@H]1O
The format is biochemical, Arabidopsis thaliana. The note with it: citrate pH 5.0, 40 °C (optimum), apparent, not saturated up to 2 mM.

Substrate in data set [2]: CC(=O)N[C@H]1[C@H](Oc2ccc([N+](=O)[O-])cc2)O[C@H](CO)[C@H](O)[C@@H]1O[C@@H]1O[C@H](CO)[C@H](O)[C@H](O)[C@H]1O
The data set is classed as biochemical, Cohnella abietis. The note with it: citrate pH 5.0, 25 °C (optimum), apparent, not saturated up to 2 mM.

Substrate in data set [3]: CC(=O)N[C@H]1[C@H](Oc2ccc([N+](=O)[O-])cc2)O[C@H](CO)[C@H](O)[C@@H]1O
The data set is classed as biochemical, Bathyarchaeia (SeqCode). The note with it: citrate pH 6.5, 70 °C (optimum), apparent, not saturated up to 2 mM.

B1: NgaAt (Arabidopsis thaliana) (protein)
chain: MDNNVSQEMTVPVEGVAGGGTAYGFNDAEPLKQSTDPSEVPTADLVNVWCMPNTVNVGSQETPRALEPINLLAARNERESFQIAMRPKVSWAASSPSGIVQVQCSDLCSSAGDRLVVGQSLKLRRVVPVLGVPDALVPLDLPVSQLSLFPGETSVIWVSIDVPTGQPPGQYEGEIIISAMKTDGGGSSHLAKHEKDQLCVELNTCLDIMEPIEGKPMDEVVERIKCASSSLRRILFSPSFSEFISTNGSTDMMEEDVVSNLSLRIKLRLTVWEFIIPVTPSLPAVIGVSDTVIEDRFAVEHGSEDWYKKLDLHFKWLLQYRISPYFCKWGESMRVLTYTSPWPADHPKSDEYLSDSRLAAYAVPYRQVIAGDDSRESYLRKEVEILRSKPHWNKAYFYLWDEPLNMEHFDNVRKMASEIYAYAPDSRVLTTYYCGPGDAPLAPTPFESFVKVPNLLRPYTQIYCTSEWVLGNREDLVKDILDELQTENGEEWWTYICLGPSDPHPNWHLGMRGTQQRAVMWRVWKEGGTGFLYWGANCYEKATVPSAEVKFRRGLPPGDGVLYYPGEVFSSSSEPVASLRLERLLSGLQDYEYLKLYESKYGREEAMGLLEKTGVYTGPERYTLEHRPIDVLRGEVYNTCRPS
notes: synthetic gene, pET-47b(+), E. coli BL21 Star (DE3); His tag cut with HRV3C; monomer; extra N-terminal domain of ~80 residues disordered in crystal
In the case of B1, in “purified protein [1]”, the Km is recorded as 12 ± 5 mM and the kcat came out at 8 ± 3 s⁻¹.

B2: NgaCa (Cohnella abietis) (protein)
chain: MANTQKTLSLSVWTASSQERVRQDDPAGESLNIELFAARGEYESFQVALKAPEGEHRNVHFVVSDLKGTGDSFISKSNLTLYREHYVYISESSPQRGTVLPEGPGWYPDALIPFIDPATNEPPSGGELIAVPFALENNSNQVIWVDIQVPRDAEAGHYSGSYIVSSEHGEVTGQISLTVWNFELPLKPSLKSTFLIWSSRKKSTVEELLKHKLMCQQWNLSEEEKGAAPTSEGEWIEKYGVNCSGLGFWSKADTFNGVMPPPPTVEEIQAAASAHPSNLFLYNYTADEIGHYTSLYEPIKAWARNLHEAGVANLITMAPVPELYDDGSGSGRSAVDIWVILPLQYDKDRIQEVLAKGDEVWSYNCCVQDDYSPKWQIDFNPIEYRIQPGFINQSLGMTGILYWRVDFWTEDPWHDVLTLRADGMEFNGEGMLVYPGEQVGIDGVVPSIRLKAIRKGIEDYEYIEILKNLGHEQWALEISQSVGPDWHNWTKDHHKLEWARKQLGERINDLMTK
notes: synthetic gene, pET-47b(+), E. coli BL21 Star (DE3); His tag cut with HRV3C; monomer
Regarding B2, in “purified protein [2]”, the Km was determined as 11 ± 3 mM and the kcat was 1.2 ± 0.3 s⁻¹.

B3: NgaBa (Bathyarchaeia (SeqCode)) (protein)
chain: MSRFDVWVQDSLTKVFRDSPKPEDAIKDVVLDAVRNEYEAAQIVVHPLEDVERLEVRVTSLRHESDEYAITRVYPRFVGYVPVKRNTPDTPPEELVRKAPGMFPDPLLEEETVRVKKGENQPVWLTVYVPKDAPPGTYHGEVLIRADGDETRVKTCLRVHDVILPDERNLKLSNFLSPHNISKFHGVELWSEDFWRLLKAYARNMAEHRQSSIITPILELTRIYKGDDRLEFDFRLLDRWINLFKEEGVIGTVEGGYLAGRPPRTVEGWWTVSEFLSRRYRVFNKDGSLAYVQEPVKVSSPVFEEFISQFMPALQAHLDELGLLDSYVQHLADEPIDANAESYKHIAGLVRKYAPKIRIIEASTCKRLVDYIDVLVPLLDDYDKNMSFYEERKRRGNEVWFYTCLAPTGRYPNRLIDYSLVKVRILHWINFKYGLVGYLHWGYNYWTEKPFEDVENEPSHPFPLPPGDPFIVYPGKSGPLDSIRFEALRDGVEDYELFKLLAERKGLDEAVGLCSLAVKTITDYVRSSGELLSIRLRLINELESLG
notes: as for B2
B3: in “purified protein [3]”, the Km is 3.9 ± 1 mM and the kcat turned out to be 510 ± 50 s⁻¹.
